Results published in the Immune Epitope Database (IEDB).

Assays:
[1] = target: HLA-C*14:02; experiment: IEDB peptide-MHC binding, purified MHC/direct/fluorescence; filed as Kd, often an IC50 or EC50 that approximates it; ≥ and ≤ were set here for values at or beyond the usual limits of such assays
[2] = target: HLA-C*07:02; experiment: as above
[3] = target: HLA-A*02:01; experiment: IEDB peptide-MHC binding, purified MHC/competitive/radioactivity; ≥ and ≤ were set here for values at or beyond the usual limits of such assays
[4] = target: HLA-C*15:02; experiment: IEDB peptide-MHC binding, purified MHC/direct/fluorescence; filed as Kd, often an IC50 or EC50 that approximates it; ≥ and ≤ were set here for values at or beyond the usual limits of such assays
[5] = target: HLA-C*06:02; experiment: as above; conditions: source organism: Mus musculus
[6] = target: HLA-B*27:05; experiment: as above
[7] = target: HLA-A*01:01; experiment: as above
[8] = target: HLA-B*40:01; experiment: as above
[9] = target: HLA-B*07:02; experiment: as above
[10] = target: HLA-A*69:01; experiment: as above
[11] = target: HLA-B*58:01; experiment: as above
[12] = target: HLA-A*11:01; experiment: as above
[13] = target: HLA-A*31:01; experiment: as above
[14] = target: HLA-A*26:01; experiment: as above
[15] = target: HLA-B*08:01; experiment: as above
[16] = target: HLA-A*03:01; experiment: as above
[17] = target: HLA-A*02:01; experiment: as above
[18] = target: HLA-B*44:02; experiment: as above
[19] = target: HLA-B*35:01; experiment: as above; conditions: source organism: Coxiella burnetii
[20] = target: HLA-B*15:01; experiment: as above
[21] = target: HLA-A*24:03; experiment: as above
[22] = target: HLA-A*30:01; experiment: as above
[23] = target: HLA-B*48:01; experiment: IEDB peptide-MHC binding, purified MHC/competitive/fluorescence; filed as Kd, often an IC50 or EC50 that approximates it; ≥ and ≤ were set here for values at or beyond the usual limits of such assays; conditions: source organism: Giardia lamblia ATCC 50803
[24] = target: HLA-A*02:03; experiment: IEDB peptide-MHC binding, purified MHC/direct/fluorescence; filed as Kd, often an IC50 or EC50 that approximates it; ≥ and ≤ were set here for values at or beyond the usual limits of such assays
[25] = target: HLA-B*51:01; experiment: as above
[26] = target: HLA-A*02:11; experiment: as above
[27] = target: HLA-B*39:01; experiment: as above
[28] = target: HLA-A*68:02; experiment: as above; conditions: source organism: Salmonella enterica subsp. enterica serovar Virchow
[29] = target: HLA-A*02:16; experiment: as above
[30] = target: HLA-B*46:01; experiment: as above; conditions: source organism: Salmonella enterica subsp. enterica serovar Virchow
[31] = target: HLA-B*27:03; experiment: as above
[32] = target: HLA-A*02:12; experiment: as above
[33] = target: HLA-A*02:19; experiment: as above
[34] = target: HLA-B*15:17; experiment: as above
[35] = target: HLA-B*51:01; experiment: IEDB peptide-MHC binding, purified MHC/competitive/fluorescence; filed as Kd, often an IC50 or EC50 that approximates it; ≥ and ≤ were set here for values at or beyond the usual limits of such assays; conditions: source organism: Shigella boydii Sb227
[36] = target: HLA-B*45:06; experiment: as above; conditions: source organism: Encephalitozoon cuniculi GB-M1
[37] = target: HLA-B*15:42; experiment: as above; conditions: source organism: Encephalitozoon cuniculi GB-M1
[38] = target: HLA-B*83:01; experiment: as above; conditions: source organism: Encephalitozoon cuniculi GB-M1
[39] = target: HLA-A*29:02; experiment: IEDB peptide-MHC binding, purified MHC/direct/fluorescence; filed as Kd, often an IC50 or EC50 that approximates it; ≥ and ≤ were set here for values at or beyond the usual limits of such assays; conditions: source organism: Encephalitozoon cuniculi GB-M1
[40] = target: HLA-B*18:01; experiment: as above; conditions: source organism: Encephalitozoon cuniculi GB-M1
[41] = target: HLA-B*57:01; experiment: as above; conditions: source organism: Encephalitozoon cuniculi GB-M1
[42] = source organism: Vaccinia virus Copenhagen
[43] = source organism: Coxiella burnetii
[44] = source organism: Yersinia pestis
[45] = source organism: Salmonella enterica subsp. enterica serovar Choleraesuis str. SC-B67
[46] = source organism: Salmonella enterica
[47] = source organism: Salmonella enterica subsp. enterica serovar Virchow
[48] = source organism: Brucella abortus
[49] = source organism: Brucella melitensis
[50] = source organism: Salmonella enterica subsp. enterica serovar Paratyphi B str. SPB7
[51] = source organism: Encephalitozoon cuniculi GB-M1

**Q.** RYWYFAAEL was tested. Which Kd [1, 42] did it give?
**A.** 15 nM

**Q.** And the Kd [2, 42]?
**A.** 1010 nM

**Q.** With ALYIPPYEL as the sequence, how does the IC50 ([3]; source organism: Rhinovirus A) read?
**A.** 586 nM

**Q.** RQASIELPSM was tested. Which IC50 ([3]; source organism: Homo sapiens) did it give?
**A.** 1770 nM

**Q.** Which Kd ([4]; source organism: Mus musculus) does the source give for LWFRNHFVF here?
**A.** ≥ 20 µM

**Q.** And the Kd [5]?
**A.** ≥ 20 µM

**Q.** What does the source list for SYGNANVSF?
**A.** Kd [6, 43]: ≥ 20 µM; Kd [7, 43]: 1.81 µM; Kd [8, 43]: ≥ 20 µM; Kd [9, 43]: ≥ 20 µM; Kd [10, 43]: ≥ 20 µM; Kd [11, 43]: ≥ 20 µM; Kd [12, 43]: ≥ 5000 nM; Kd [13, 43]: ≥ 20 µM; Kd [14, 43]: ≥ 20 µM; Kd [15, 43]: ≥ 20 µM; Kd [16, 43]: ≥ 20 µM; Kd [17, 43]: ≥ 20 µM; Kd [18, 43]: ≥ 20 µM; Kd [19]: 264 nM; Kd [20, 43]: 1.14 µM

**Q.** What does the source list for VPRVHNQPQ?
**A.** Kd [6, 44]: ≥ 20 µM; Kd [7, 44]: ≥ 20 µM; Kd [8, 44]: ≥ 20 µM; Kd [9, 44]: 0.0437 µM; Kd [10, 44]: ≥ 20 µM; Kd [11, 44]: ≥ 20 µM; Kd [12, 44]: ≥ 20000 nM; Kd [13, 44]: ≥ 20 µM; Kd [14, 44]: ≥ 20 µM; Kd [15, 44]: 5.69 µM; Kd [16, 44]: ≥ 20 µM; Kd [17, 44]: ≥ 20 µM; Kd [18, 44]: ≥ 20 µM; Kd [21, 44]: ≥ 20 µM; Kd [22, 44]: ≥ 20 µM; Kd [20, 44]: ≥ 20 µM

**Q.** Which IC50 ([3]; source organism: Human immunodeficiency virus 1) does the source give for SLYNLVAVL here?
**A.** 27 nM

**Q.** For VLYRYGSFSV, which IC50 ([3]; source organism: Homo sapiens) is on record?
**A.** 13.2 nM

**Q.** How did the Kd [23] turn out when GQPHSLASL was run?
**A.** 149 nM

**Q.** With RTAKVRAFH as the sequence, how does the Kd [12, 45] read?
**A.** 69 nM

**Q.** What about the Kd [13, 46] of the same sequence?
**A.** 0.15 µM

**Q.** And the Kd [16, 46]?
**A.** 0.241 µM

**Q.** What about the Kd [22, 45] of the same sequence?
**A.** 0.032 µM

**Q.** Which results are given for CTWPEASRY?
**A.** Kd [10, 47]: ≥ 20 µM; Kd [24, 47]: ≥ 20 µM; Kd [25, 47]: ≥ 20 µM; Kd [26, 47]: ≥ 20 µM; Kd [27, 47]: ≥ 20 µM; Kd [28]: ≥ 20 µM; Kd [29, 47]: ≥ 20 µM; Kd [30]: ≥ 20 µM; Kd [16, 47]: ≥ 20 µM; Kd [31, 47]: ≥ 20 µM; Kd [17, 47]: ≥ 20 µM; Kd [32, 47]: ≥ 20 µM; Kd [21, 47]: ≥ 20 µM; Kd [33, 47]: ≥ 20 µM; Kd [34, 47]: 26 nM

**Q.** EKPPVRPIF was tested. Which Kd [6, 48] did it give?
**A.** ≥ 20 µM

**Q.** And the Kd [7, 48]?
**A.** ≥ 20 µM

**Q.** And the Kd [8, 48]?
**A.** ≥ 20 µM

**Q.** And the Kd [9, 48]?
**A.** ≥ 20 µM

**Q.** And the Kd [10, 48]?
**A.** ≥ 20 µM

**Q.** And the Kd [11, 48]?
**A.** ≥ 20 µM

**Q.** What about the Kd [13, 48] of the same sequence?
**A.** ≥ 20 µM

**Q.** What about the Kd [14, 48] of the same sequence?
**A.** ≥ 20 µM

**Q.** And the Kd [15, 49]?
**A.** 5.61 µM

**Q.** And the Kd [16, 48]?
**A.** ≥ 20 µM

**Q.** What about the Kd [17, 48] of the same sequence?
**A.** ≥ 20 µM

**Q.** And the Kd [18, 48]?
**A.** ≥ 20 µM

**Q.** What about the Kd [22, 49] of the same sequence?
**A.** 8.74 µM

**Q.** And the Kd [20, 48]?
**A.** ≥ 20 µM

**Q.** Which results are given for SVFTGLLPF?
**A.** Kd [1, 50]: 560 nM; Kd [4, 50]: 12.3 µM; Kd [2, 50]: 507 nM

**Q.** FPAWFAWIF was tested. Which Kd [35] did it give?
**A.** ≥ 20 µM

**Q.** What about the Kd ([2]; source organism: Shigella boydii Sb227) of the same sequence?
**A.** ≥ 20000 nM

**Q.** Which IC50 ([3]; source organism: Hepatitis B virus) does the source give for FLCKQYLNL here?
**A.** 29 nM

**Q.** What does the source list for FSFFMNENF?
**A.** Kd [36]: ≥ 5 µM; Kd [37]: ≥ 5 µM; Kd [38]: ≥ 5 µM; Kd [24, 51]: ≥ 20 µM; Kd [25, 51]: ≥ 20 µM; Kd [26, 51]: ≥ 20 µM; Kd [27, 51]: ≥ 20 µM; Kd [39]: ≥ 20 µM; Kd [40]: ≥ 20 µM; Kd [29, 51]: ≥ 20 µM; Kd [14, 51]: ≥ 20 µM; Kd [16, 51]: ≥ 20 µM; Kd [31, 51]: ≥ 20 µM; Kd [17, 51]: ≥ 20 µM; Kd [32, 51]: ≥ 20 µM; Kd [21, 51]: ≥ 20 µM; Kd [33, 51]: ≥ 20 µM; Kd [41]: ≥ 20 µM; Kd [34, 51]: ≤ 1 nM
